Assay results from patent publication US20210277126A1 (LEGEND BIOTECH IRELAND, published 2021).
Where a chain is given by its changes, count along the chain named. One block for each binder: values may come before it.

Legend:
[1] = molecular target: T1, cynomolgus monkey CLL1 ECD (65-265) (cynomolgus monkey); test: SPR (Biacore T200), sdAb supernatant, recombinant cynomolgus CLL1
T1 construct: Expressed in 293-F cells and purified by IMAC; also called cynoCLL1; recombinant cynomolgus monkey CLL1 protein
T1 chain: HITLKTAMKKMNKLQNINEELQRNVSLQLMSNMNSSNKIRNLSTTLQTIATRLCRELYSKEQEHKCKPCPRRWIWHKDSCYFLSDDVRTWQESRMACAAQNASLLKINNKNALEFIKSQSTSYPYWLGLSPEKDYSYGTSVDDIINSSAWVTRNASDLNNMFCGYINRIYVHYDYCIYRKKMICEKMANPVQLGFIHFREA
Experimental: (§1) The unique clones were grown in 2YT medium and induced by IPTG for sdAb expression in the supernatant. The supernatants of unique binders were analyzed for their ability to bind to a CLL1-expressing HKE293/huCLL-1 cell line and cancer cell line AML193 using a FACS assay. Affinities of selected binders in supernatants to recombinant human and cynomolgus monkey CLL1 proteins were determined by surface plasmon resonance (SPR) on a BIACORE® T200 instrument. The dissociation phase was used to calculate the kd values for each sdAb.

[2] = molecular target: T2, human CLL1 ECD (65-265) (human, UniProt Q5QGZ9 65-265); test: SPR (Biacore T200), sdAb supernatant, recombinant human CLL1
T2 construct: Expressed in 293-F cells and purified by IMAC; also called huCLL1; recombinant human CLL1 protein
T2 sequence: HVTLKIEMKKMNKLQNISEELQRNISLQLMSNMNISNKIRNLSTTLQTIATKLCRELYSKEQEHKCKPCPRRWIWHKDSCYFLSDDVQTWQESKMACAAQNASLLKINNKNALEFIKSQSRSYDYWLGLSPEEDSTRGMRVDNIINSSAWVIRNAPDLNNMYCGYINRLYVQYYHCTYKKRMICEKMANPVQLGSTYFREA
Experimental: as §1

B3: AS82544 sdAb (VHH)
VHH: EVQLVESGGALVQPGGSLRLSCTASGFLFRVYDMNWVRQAPGKGVEWIVGITNNGYTTAYADSVKGRFTISRDNTENTLFLQMNSLKPEDTAMYYCQTDNGRVRGQGTQVTVSS
notes: Camel sdAb tested as E. coli culture supernatant; not shown: C-terminal His-tag encoded by the soluble expression vector
Kd [1]: 39 nM | Kd [2]: 8.6 nM

B4: AS83457 sdAb (VHH)
VHH: QVQLVESGGGLVQPGGSLRLSCAASGFFFSIYDMNWFRQAPGKGLEWVSGITGNGYTTAYADSVKGRFTISRDNAKNTLYLQLNSLKSEDTAMYYCAQGSNRGRGTQVTVSS
notes: as for B3
Kd [1]: 19 nM | Kd [2]: 31 nM

B5: AS82494 sdAb (VHH)
VHH: B4 VHH with F28T, I31V, A59S, Q98K, G99E, S100T, R104Q
notes: as for B3
Kd [1]: 98 nM | Kd [2]: 21 nM

B7: AS82505 sdAb (VHH)
VHH: QVQLAESGGGLVQPGGSLRLSCVASGFTFSSYDMSWVRQAPGKGVEWVSTINSGGGSTYYAESAKGRFTISRDNAKNTLYLQLNSLKTEDTAMYYCVKGFPDDDGPGELSREYNYWGQGTQVTVSS
notes: as for B3
Kd [1]: 0.59 nM | Kd [2]: 0.83 nM

B9: AS82658 sdAb (VHH)
VHH: QVQLVESGGGSVQAGGALSLSCAASGYTVRIDYMGWYRQTPGKGREPVATIASNGGTAYADSVEGRFTISQDNAKNSVYLQMNTLKPGDTAMYYCAAGTWPTLTYFGQGTQVTVSS
notes: as for B3
Kd [1]: 1.9 nM | Kd [2]: 1.6 nM

B13: AS82480 sdAb (VHH)
VHH: EVQLVESGGGSVQAGGSLRLSCAASGVTYSSACMGWFRQAPGKGREVVAVLYAGGSTTHYASSVKERFTISQDNAKNTVYLQMNSLKPEDTAVYYCAAALGDRSSCEWRYWGQGTQVTVSS
notes: as for B3
Kd [1]: 47 nM | Kd [2]: 1.5 nM

Next, values leading:

Kd [1]: 19 nM | Kd [2]: 31 nM
B1: AS83591 sdAb (VHH)
VHH: QVQLVESGGGLVQPGGSLRLSCAASGFLFSIYDMNWVRQAPGKGVEWIAGITNNEHTTAYADSVKGRFTISRDNTKNTLFLQMNSLKPEDTAMYYCQRDDGQVRGQGTQVTVSS
notes: as for B3

Kd [1]: 0.26 nM | Kd [2]: 1 nM
B2: AS83183 sdAb (VHH)
VHH: QVHLVESGGGSVQSGGSLRLSCAASGYAYRSYCMGWFRQAPGKVLEGVAAIESDGTTTYADSVMGRFTISQDNAKNALYLQMNSLKPEDTAMYHCAAVKGSCDSASSDTPSYWGQGTQVTVSS
notes: as for B3

Kd [1]: 3.2 nM | Kd [2]: 8.4 nM
B6: AS83010 sdAb (VHH)
VHH: B4 VHH with A23V, I31A, A97T, Q98E, S100D, R104Q
notes: as for B3

Kd [1]: 2.4 nM | Kd [2]: 3 nM
B8: AS83180 sdAb (VHH)
VHH: QVQLVESGGGSVQAGGSLRLSCVVSAATNCRYIAWYRQAPGKAREFVSTLGSDGNTNYADSVKGRFTISQGNIKNMAYLEMNSLKPEDTGMYYCGTRCQIGDDWRSSDWAQGTQVTVSS
notes: as for B3

Kd [1]: 0.24 nM | Kd [2]: 0.37 nM
B10: AS83431 sdAb (VHH)
VHH: QVRLVESGGGSVQSGGSLRLSCAASGYARSSTCLGWFRQAPGKEVEGVAIIGRDGSTGYADSVKGRFTISQDNAKNTLYLHMDSLKPEDTAMYYCAAVEGGCEVSEGTGEQQLAYWGQGTQVTVSS
notes: as for B3

Kd [1]: 1.4 nM | Kd [2]: 2 nM
B11: AS83478 sdAb (VHH)
VHH: QVHLMESGGGLVQPGESLRLSCAASGFIFANYEMSWVRQAPGKVLEWVSGINSRGNATYYADSVKGRFTISRDNAEHTLYLQMNSLKPEDTAMYHCVVGGMTTDQGSPDFYWGQGTQVTVSS
notes: as for B3

Kd [1]: 0.63 nM | Kd [2]: 7.3 nM
B12: AS83309 sdAb (VHH)
VHH: EVQLVESGGDLVRPGGSLRLSCAASGFTFSIYDMNWVRQAPGKGLEWVAGISGNGYSTSYAESVKGRFTISKDNAKNTVYLQLSSLKFEDTAMYYCVRGGEKWDENDLRRKGQGTQVTVSS
notes: as for B3

Kd [1]: 0.22 nM | Kd [2]: 0.44 nM
B14: AS83791 sdAb (VHH)
VHH: QVKLVESGGGLVQPGGSLRLSCVASGFAFSSADMSWVRQAPGKGVEAVSVINRDGASTYYADSVKGRFTISRDNAKSTLYLQMNSLKPEDTAMYHCAVVPENEYESGSYNYWGQGTQVTVSS
notes: Tested as E. coli culture supernatant; not shown: C-terminal His-tag encoded by the soluble expression vector

Kd [1]: 2.6 nM | Kd [2]: 24 nM
B15: AS82718 sdAb (VHH)
VHH: QVQLAESGGGLVQTGGSLRLSCTASGLNFGLYAMGWFRQAPGKEREGVSCINGGGGITVYSDFVKSRFTISRDNAKNTLYLQMNSLKPDDTATYYCAADRSPFGSCSSDWSRSSDWSRMAEKFGYWGQGTQVTVSS
notes: as for B3
